Reference: article PMC10244175, “Seeding the aggregation of TDP-43 requires post-fibrillization proteolytic cleavage” (Nature Neuroscience, 2023)

Target: the molecule itself
Assay: cryo-EM structure; fibrils of recombinant CP (279–360); helical reconstruction in RELION; two populations (one protofilament 4.1 Å, two protofilaments 3.7 Å); model built for G281-G351

B1: TDP-43 (279–360) core peptide (domain or fragment, UniProt Q13148 279-360, looked up)
chain: NPGGFGNQGGFGNSRGGGAGLGNNQGSNMGGGMNFGAFSINPAMMAAAQAALQSSWGMMGMLASQQNQSGPSGNNQNQGNMQ
notes: TDP-43 residues 279-360 (82 amino acids), part of the C-terminal domain; printed theoretical mass 8041.7 Da; the atomic model PDB 7Q3U covers G281-G351; The fusion is written as His6-Sumo-TDP-43 (279–360) CP; the tag is removed by Ulp-1; also called CP; CP (279–360); source: E. coli ER2566, purified (Ni-NTA, Ulp-1 cleavage, reverse-phase HPLC C18), lyophilized; fibrils formed at 50 µM in …
- binding result: binds
